Measured values: publication PMC9736777, “Expression and Characterization of Monomeric Recombinant Isocitrate Dehydrogenases from Corynebacterium glutamicum and Azotobacter vinelandii for NADPH Regeneration” (International Journal of Molecular Sciences, 2022)

B1: CgIDH (Corynebacterium glutamicum ATCC 13032) (protein)
chain: MAKIIWTRTDEAPLLATYSLKPVVEAFAATAGIEVETRDISLAGRILAQFPERLTEDQKVGNALAELGELAKTPEANIIKLPNISASVPQLKAAIKELQDQGYDIPELPDNATTDEEKDILARYNAVKGSAVNPVLREGNSDRRAPIAVKNFVKKFPHRMGEWSADSKTNVATMDANDFRHNEKSIILDAADEVQIKHIAADGTETILKDSLKLLEGEVLDGTVLSAKALDAFLLEQVARAKAEGILFSAHLKATMMKVSDPIIFGHVVRAYFADVFAQYGEQLLAAGLNGENGLAAILSGLESLDNGEEIKAAFEKGLEDGPDLAMVNSARGITNLHVPSDVIVDASMPAMIRTSGHMWNKDDQEQDTLAIIPDSSYAGVYQTVIEDCRKNGAFDPTTMGTVPNVGLMAQKAEEYGSHDKTFRIEADGVVQVVSSNGDVLIEHDVEANDIWRACQVKDAPIQDWVKLAVTRSRLSGMPAVFWLDPERAHDRNLASLVEKYLADHDTEGLDIQILSPVEATQLSIDRIRRGEDTISVTGNVLRDYNTDLFPILELGTSAKMLSVVPLMAGGGLFETGAGGSAPKHVQQVQEENHLRWDSLGEFLALAESFRHELNNNGNTKAGVLADALDKATEKLLNEEKSPSRKVGEIDNRGSHFWLTKFWADELAAQTEDADLAATFAPVAEALNTGAADIDAALLAVQGGATDLGGYYSPNEEKLTNIMRPVAQFNEIVDALKK
notes: full-length gene, C-terminal 6xHis (kept), pET24a, E. coli BL21(DE3), Ni-NTA; about 80 kDa by SEC, monomer
B2: AvIDH (Azotobacter vinelandii) (protein)
chain: STPKIIYTLTDEAPALATYSLLPIIKAFTGSSGIAVETRDISLAGRLIATFPEYLTDTQKISDDLAELGKLATTPDANIIKLPNISASVPQLKAAIKELQQQGYKLPDYPEEPKTDTEKDVKARYDKIKGSAVNPVLREGNSDRRAPLSVKNYARKHPHKMGAWSADSKSHVAHMDNGDFYGSEKAALIGAPGSVKIELIAKDGSSTVLKAKTSVQAGEIIDSSVMSKNALRNFIAAEIEDAKKQGVLLSVHLKATMMKVSDPIMFGQIVSEFYKDALTKHAEVLKQIGFDVNNGIGDLYARIKTLPEAKQKEIEADIQAVYAQRPQLAMVNSDKGITNLHVPSDVIVDASMPAMIRDSGKMWGPDGKLHDTKAVIPDRCYAGVYQVVIEDCKQHGAFDPTTMGSVPNVGLMAQKAEEYGSHDKTFQIPADGVVRVTDESGKLLLEQSVEAGDIWRMCQAKDAPIQDWVKLAVNRARATNTPAVFWLDPARAHDAQVIAKVERYLKDYDTSGLDIRILSPVEATRFSLARIREGKDTISVTGNVLRDYLTDLFPIMELGTSAKMLSIVPLMSGGGLFETGAGGSAPKHVQQFLEEGYLRWDSLGEFLALAASLEHLGNAYKNPKALVLASTLDQATGKILDNNKSPARKVGEIDNRGSHFYLALYWAQALAAQTEDKELQAQFTGIAKALTDNETKIVGELAAAQGKPVDIAGYYHPNTDLTSKAIRPSATFNAALAPLA
notes: full-length gene, C-terminal 6xHis (kept), pET24a, E. coli BL21(DE3), Ni-NTA

How the values were obtained:
Experiment in all cases: NADPH fluorescence, initial rates, Michaelis-Menten fit
[1] = substrate: NC(=O)c1ccc[n+]([C@@H]2O[C@H](COP(=O)(O)OP(=O)(O)OC[C@H]3O[C@@H](n4cnc5c(N)ncnc54)[C@H](OP(=O)(O)O)[C@@H]3O)[C@@H](O)[C@H]2O)c1; type: biochemical, Corynebacterium glutamicum; settings: 1 mM isocitrate, 1 mM MnCl2, 20 mM MOPS pH 7.4, 100 mM NaCl, 30 °C, varied: cofactor
From the text: (§1) NADPH fluorescence, initial rates, Michaelis-Menten fit on CgIDH

[2] = substrate: O=C(O)CC(C(=O)O)C(O)C(=O)O; type: biochemical, Corynebacterium glutamicum; settings: 1 mM NADP+, 1 mM MnCl2, 20 mM MOPS pH 7.4, 100 mM NaCl, 30 °C, DL-isocitrate 0-100 μM
From the text: as §1

[3] = substrate: NC(=O)c1ccc[n+]([C@@H]2O[C@H](COP(=O)(O)OP(=O)(O)OC[C@H]3O[C@@H](n4cnc5c(N)ncnc54)[C@H](OP(=O)(O)O)[C@@H]3O)[C@@H](O)[C@H]2O)c1; type: biochemical, Azotobacter vinelandii; settings: 1 mM isocitrate, 1 mM MnCl2, 20 mM MOPS pH 7.4, 100 mM NaCl, 30 °C, varied: cofactor
From the text: (§2) NADPH fluorescence, initial rates, Michaelis-Menten fit on AvIDH

[4] = substrate: O=C(O)CC(C(=O)O)C(O)C(=O)O; type: biochemical, Azotobacter vinelandii; settings: 1 mM NADP+, 1 mM MnCl2, 20 mM MOPS pH 7.4, 100 mM NaCl, 30 °C, DL-isocitrate 0-100 μM
From the text: as §2

Row | Protein | Km [1] [µM] | kcat [1] [s⁻¹] | kcat/Km [1] [M⁻¹ s⁻¹] | Km [2] [µM] | kcat [2] [s⁻¹] | kcat/Km [2] [M⁻¹ s⁻¹] | Km [3] [µM] | kcat [3] [s⁻¹] | kcat/Km [3] [M⁻¹ s⁻¹] | Km [4] [µM] | kcat [4] [s⁻¹] | kcat/Km [4] [M⁻¹ s⁻¹]
1 | B1 | 10.3 | 43.7 | 4.3e+06 | 15.0 | 49.4 | 3.3e+06 |  |  |  |  |  | 
2 | B2 |  |  |  |  |  |  | 5.9 | 38.7 | 6.6e+06 | 13.9 | 44 | 3.2e+06
